test: yeast display, Sf9 membrane polyspecificity reagent, FACS + sequencing; frameworks hold sequencing errors
In short: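 Using colony PCR, genes from sorted yeast display clones were amplified, then sequenced on MiSeq at 2 × 250 and filtered by CDR length. The clones had been stained with 10% biotinylated, detergent-solubilized Sf9 membrane reagent for 1 hour at 4 °C and sorted by FACS into low and high (top ~1%) gates on anti-HA and streptavidin fluorescence. Polyreactivity labels come from the gate of origin.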

Sequence	polyreactivity (PSR sort gate)
QVQLVESGAGLVQAGGSLRLSCAATGSIVDWYVMGWYRQAPGKERELVAAITSTGSTYYADSVKGRFTISRDNAKNPVYLQMNSLKPEDTAVYYCATSFYVYPTYYIMDYWGQGTQVTVSS	low polyreactivity
QGQLGESGGGLVQAGGSLRLSCAASGSNFSSNAMGWYRQAPWKERELVAAISSGGSTNYADSVKGRFTISRDNAKNTVYLQMNSLKPEDTAVYYCAADTSTGVYTPYAFEFDWGQGTQVTVSS	low polyreactivity
QVQLVETGGGLVQAGGSLRLSCAASGRIFTYYAMGWYRQAPGKERELVAGISSRGTRTYYADSVKGRFTISRDNAKNTVYLQMNSLKPDDTAVYYCAAYPQFWYWDYNYWGQGTQVTVSS	high polyreactivity
QVQLVESGGGLVQEGGSLRLSCAASGLTFFPYAMGWYRQAPGKERELVAAITTSDGTTYYADSVKGRFTISRDNAKNTVYLQMNSLKPEDTAVYYCAAVYSPRSVWWYDYWGQGTEVTVSS	low polyreactivity
QVQLVESGGGLVQAGGSLRLSCAASVLIIGYNSMGWYRQAPGTERELVASIRYSGGTTYYADSVKGRFTISRDNEKNTVNLQMNSVKPEDTAVYFCATRVTYRRRFDYWGQGTQVTVSS	high polyreactivity
QVQLVESGGGLVQAGGSLRLSCAASGFIFGYYAMGWYRQAPGKERELVAAITRSGGSTRYADSVKGRFTLSRDNAKNTVYLQMNSLKPEDTAVYYCTAYAPRQLYGYDYWGQGTQVTVSS	high polyreactivity
QVQLVESGGGLVQAGGSLRLSCAASGRIFRYNAMGWYRQAPGKERELVAAISWTVGRTYYADSVKGRFTISRDNAKNTVYLQMNSLKPEDTAVYYCATDVGYYRKYEYYYWGQGTQVTVSS	high polyreactivity
QVQLVESGGGLVQAGGSLRLSCAASGFTFHSYAMGLYRQAPGKERELVAAISPGATTYYADSVKGRFTISRENANNTVYFKLNSLKPEDTAVYYFAASYQRVRDATVYTIYDYWGQGTQVTVSS	high polyreactivity
QVQLVESGGGLVQAGGSLRLSCAASGRTFWTKAMGWYRQAPGKEREFVAAISWRGASTFYADSVKGRFTISRDNAKNTVYLQMNSLKPEDTAVYYCAAESYIGKYGSYDYWGQGTQVTVSS	low polyreactivity
QVQLVESGGGLVQAGGSLRLSCAASGSTFGGNAMGWYRQAPGKERELVAAITIGGRTNYADSVKGRFTISRDYAKNTVYLQMNSLKPEDTAVYYCAKDRDQWQDYWGQGTQVTVSS	low polyreactivity
QVQLVESGGGLVQAGGSLRLSCAASGSIFGGYVMGWYRQAPGKERELVAAITSGGSTYYADSVKGRFTISRDNAKNTVYLQMNSLKPEDTAVYYCNADPYTYSYGMYYWGHGTQVTVSS	low polyreactivity
QVQLVESGGGLVPAGGSLRLSCAASGSIFGKNAMGSYRQAPGNERELVAAITRRGGSTYYADSVKGRFTISRDNAKNTVYLQMNSLKAEDTAVYYCAAVSHYPAGYDYWGQGTQVTVSS	high polyreactivity
LVKLQESGGGLVQAGGSLRLSCAASGTISPGGYMGRYRQAPGKEGELVASINVGGSTNYADSVKGRFTISRDNAKNTVYLQMNSLIPEDNAVYYCAVWGRNRLQLSYWGQGTQVTVSS	low polyreactivity
QVQLVESGGGLVQAGGSLRLSCAASGISFSYYAMGWYRQAPGKERELVAAITSSGGSTYYADSVKGRFTISRDNEKNTVYLQMTSLKPEDTAVYYCNAKRAPWGTLYNYWGLGTQVTVSS	high polyreactivity
PVQLVESGGGIVQAGGSLRLSCAASGRTFRYNPMGWSRQAPGKERELVAAITYSGGSTYYADSVKGRFTISRDNEKNTVYLQMNSMKPEETAVYYCAAGWRRFDYWGQGTQVTVSS	high polyreactivity
QVQLVESGGGLVQAGGSLRLSCAASGTTFGGNSMGWYRQAPGKERELVAAIDSGGSTYADSVKGRFTISRDNAKNTVYLQMNSLKPEDTAVYYCAAVWEFVHYWRFDYWGQGSQVTVSS	low polyreactivity
QVQLVESGGGLVQAGGSLRLSCAASGFTLGFNAMGWYRQAPGKERELVAAITIGGTTYYADSVKGRFTISRDNAKNTVYLQMNSLKPEDTAVYYCAAARFLWFYVYTTRVQRYGYWGQGTQVTVSS	low polyreactivity
QVQLLESGGGLVQAGGSLRLSCAASGLIFKYYAMGWYRQAPGKERELVAVITSSGGSTYYADSVKGRFTISRDNANNTVYLQMNSLKPEDTAVYYCAARRVRWPYDYWGQGTQVTVSS	high polyreactivity
QVQLVESRGGLDQAGGSLRLSCAASGSTFYMYAMGWYRQAPGKERELVASITSGDGSTYYADSVKGRFTISRDNAKNTVYLQMNSLKPEDTAVYYCNAVLEGWFYQYDYWGQGTQVTVSS	low polyreactivity
QVQLVESGGGLVQAGGSLRLSCSASGRIFAAYAMGWYRQAPGKERELVATITRGGSTYYADSVKGRFTISRDNAKNTVYLQMNSLKPKDTAVYYCAVKRGFTQYKPFNYWGQGTQVTVSS	high polyreactivity
QVQLVESGGGLVQAGGSLRLSCAASGRIFATNAMGWYRQAPGKERELVATITRSAGRTYYADSVKGRFTISRDNAKNTVYLQMNSLKPEDTAVYYCAASYWDTDPGYREYDYWGQGTQVTVSS	low polyreactivity
QVQLVESGGGLVQAGGSLRLSCAASGRIFGANAMGWYRQAPGKERELVAAISYSGSRTYYADSVKGRFTISRDNAKNTVYLQMNSLKPEDTAVYYCNTGIAGRRSGYRTDSDYWGQGTQVTVSS	high polyreactivity

Sequence	polyreactivity (PSR sort gate)
QVQLEESGGGLVQAGGSLRLSCAASGSTFKYYAMGWYRQAHGKERELVAAISRRGGSTYYADSVKGRFTISRDNAKNTVYLQMNSLKPEDTAVYYCAADIIRPVTVDYWGQGTQVTVSS	high polyreactivity
QVQLVESGGGLVQAGGSLRLSCAASGRIFDHNAMGWYRPAPGKERELVAAIDWSGGSTYYADSVKGRFTISRDNAKNTVYLQMNSLKPEDTAVYYCNVYWHTFSWDDYGYWGQGTQVTVSS	low polyreactivity
QVQLVESGGGLVQAGGSLRLSCAASGFTFGTNAMGWDRQAPGKERELVAAISGSGGSTYYADSVKGRFTISRDNAMNTVYLQMNSLKPEDTAVYYCNKGRPRKVYSEGFGYWGQGTQVTVSS	high polyreactivity
QVQLVESGGGLVQAGGSLRLSCAASGITFSRKVMGWFRQAPGKERELVAAISRSGGRTYYADSVKGRFTISRDTAKNTVYLQMNSLKPEDTAVYYCNRDIGGTSVLDDYWGQGTQVTVSS	low polyreactivity
QVQLVVSGGGLVQAGGSLRLSCAASGSIFSRYTMGWYRVAPGKERELVAAITASGTRTYYADSVKGRFTISRDNAKNTVYLQMNSLKPEDTAVYYCNVVRGSRDVTYGYNYWGQGTQVTVSS	high polyreactivity
QVQLVESGGGLVQAGGSLRLSCAASGRTFGAYTMGWYRQAPGKERELFAAINWSGGDTYYADSVKGRFTISRDNAKNTVYLQMNSLKPEDTAVYYCNADFGFGYVSLLYEYWGQGTQVTVSS	low polyreactivity
QVQLVESGGGLVQAGGSLRLSCAASGFTFGSNDMGWYRQAPGKERELVAAINYSGVRTYYADSVKGRFTISRDNAKNTVYLQMNSLKPEDTAVYYCAKKRSKPISFDYWVQGTQVTVSS	high polyreactivity
QVQLVESGGGLDQAGGSVRLSCAASGSTFDNYAMGWYRQAPGKEREWVAVISRSGTSTYYADSVKGRFTISRDNAKNTVYLQMNSLKPEDTAVYYCASAPSQVYRARFYYWGQGTQVTVSS	high polyreactivity
QVQLVEAGGGLVQAGGSLRLSCAASGRTFLYYDMGRYRQAPGKERELVAVITLRGGRTYYADSVKGRFTISRDNAKNTVYLQMNILKPEDTAVYYCAKDYSRGYNYWGQGTQVTVSS	high polyreactivity
QVQLVESGGGLVQAGGSLRLSCAASGGIFYRYAMGWYRQAPGKEREFVASITSSGDRTYYADSVKGRFTISRDNAKNTVYLQMNSLKPEDTAVYYCAAVYTAAWGGRYHYWGQGTQVTVSS	high polyreactivity
QVQLVESGGGLVQAGGSLRLSCAASGSIFATYAMGWYRQAPGKEMELVAVISCGGGRTNYADSVKGRFTISRDNAKNTVYLQLNSLKPEDTAVYYCAAGGYWRIATDGPRGGDYWGQGTQVTVSS	high polyreactivity
QDQLVESGGGLVQAGGSLPLSCAASGLTFDYYVMGGYRQAPGKERELVATISWSGDITYYADSVKGRFTISRDNAKNTVYLQMNSLKPEDTAVYYCAADPYSWREGGYWGQGTQVTVSS	low polyreactivity
QVQLVESGGGLVQAGGSLRLSCAASGRTLIWYTMGWYRQAPGKERELVAAITSGGSTYYADSVKGRFTISRDNAKNTVYLRMNSLKPEDTAVYYCAAVYPAAPRAYGYWGQGTQVTVSS	low polyreactivity
QVQLVESGGCLVQAGGSLRLSCAASGFTFRRYTMGWSRQAPGKDRELVAAISGRGGRTYYADSVKGRFTISRDNAKNTVYLQMNSLQPQDTAVYYSAADTPYWQSSKYDYWGQGTQVTVSS	high polyreactivity
QVQLVESGGGLVQAGGSLRLSCAASGRIITKYTMGWYRQAPGKERELVAAISRSDRTNYADSVKGRFTISRDNAKNTVYLQMNSLKPEDTAVYYCAAQFTVLWYEYYYWGQGTQVTVSS	high polyreactivity
QVQLVESGGGLVQAGGSLRLSCAASGSIFLYNAMGWYIQAPGKERELVAAISRSSTSTYYADSVKGRFTISRDNAKNTVYLQMNSLKPEDTAVYYCAARGRVTYWGQGTQVTVSS	high polyreactivity
QVQLVESGGGLVHAGGSLRLSCAASGNIPPGNAMGWYRQAPGKERELVAAITASDGSTYYADSEKGRFTISRDHDKNTVYLQMNSLKPEDTAVYYCAKEQVYTYYLEYEYWGQGTQVTVSS	high polyreactivity
QVQLLESGGGLVQAGGSLRLSCAASGWYRQAPGKERELVAAITYSGGSTYYADSVKGRFTISRDNAKNTVYLQMNSLKPEDTAVYYCAVATGLLYKSHGYWGQGTQVTVSS	low polyreactivity
QVQLVESGGGLVQAGGSLRLSCAASGRTFADHTMGWYRQAPGKERELVARINSGSSTYYADSVKGRFTISRDNAKNTVYLQMNSLKPEDTAVYYCAARGSDYIRWYVGGRYGYWGQGTQVTVSS	low polyreactivity
QVQRVESAGGLVQAGVSLRLSCAASGITFASNTMGWYRQAPGKARELVAAITRGDNTYYADSVKGRFTISRDNAKNTVYLHMNSLKPEDTAVYYCATEGYEIQYEHDYWGEGTQVTVSS	low polyreactivity
QVQLVESGGGLVQAGGSLRLRCAASGRIFTYYTMGWYIQAAGKEMELDANITTGGSTNYADSVKGRFTISRDNAENTVYLQMNSLKPEDSAVYYCNKDGVVEVRFTGRHEYDYWGQGTQVTVSS	low polyreactivity

From the nanobody polyreactivity screen of Harvey et al. (2022)
